Assay results taken from patent US20190376053A1 (BOARD OF TRUSTEES OF THE UNIVERSITY OF ARKANSAS, published 2019).

B1: collagen-binding domain s3b derived from Clostridium histolyticum class I collagenase ColG (other)
chain: GNEKLKEKENNDSSDKATVIPNFNTTMQGSLLGDDSRDYYSFEVKEEGEVNIELDKKDEFGVTWTLHPESNINDRITYGQVDGNKVSNKVKLRPGKYYLLVYKYSGSGNYELRVNK
notes: domain: s3b; also called ColGS3b; CBD (s3b)
B2: tandem collagen-binding domain (s3a-s3b) derived from Clostridium histolyticum class I collagenase ColG (other)
chain: PITKEMEPNDDIKEANGPIVEGVTVKGDLNGSDDADTFYFDVKEDGDVTIELPYSGSSNFTWLVYKEGDDQNHIASGIDKNNSKVGTFKSTKGRHYVFIYKHDSASNISYSLNIKGLGNEKLKEKENNDSSDKATVIPNFNTTMQGSLLGDDSRDYYSFEVKEEGEVNIELDKKDEFGVTWTLHPESNINDRITYGQVDGNKVSNKVKLRPGKYYLLVYKYSGSGNYELRVNK

Key:
[1] = target: T1, collagen fibril (porcine skin fiber, Nippi, Inc) (porcine); assay: collagen fibril binding assay (spin column, SDS-PAGE of the unbound protein, Scatchard plot)
T1 construct: also called collagen fiber; insoluble collagen fibril

[2] = target: rat collagen (collagen type I) (rat, UniProt P02454 152-1207; P02466 86-1125); assay: cell-based or functional assay
Chain of rat collagen (collagen type I) (P02454 152-1207 limits assumed, chain 1 of 2): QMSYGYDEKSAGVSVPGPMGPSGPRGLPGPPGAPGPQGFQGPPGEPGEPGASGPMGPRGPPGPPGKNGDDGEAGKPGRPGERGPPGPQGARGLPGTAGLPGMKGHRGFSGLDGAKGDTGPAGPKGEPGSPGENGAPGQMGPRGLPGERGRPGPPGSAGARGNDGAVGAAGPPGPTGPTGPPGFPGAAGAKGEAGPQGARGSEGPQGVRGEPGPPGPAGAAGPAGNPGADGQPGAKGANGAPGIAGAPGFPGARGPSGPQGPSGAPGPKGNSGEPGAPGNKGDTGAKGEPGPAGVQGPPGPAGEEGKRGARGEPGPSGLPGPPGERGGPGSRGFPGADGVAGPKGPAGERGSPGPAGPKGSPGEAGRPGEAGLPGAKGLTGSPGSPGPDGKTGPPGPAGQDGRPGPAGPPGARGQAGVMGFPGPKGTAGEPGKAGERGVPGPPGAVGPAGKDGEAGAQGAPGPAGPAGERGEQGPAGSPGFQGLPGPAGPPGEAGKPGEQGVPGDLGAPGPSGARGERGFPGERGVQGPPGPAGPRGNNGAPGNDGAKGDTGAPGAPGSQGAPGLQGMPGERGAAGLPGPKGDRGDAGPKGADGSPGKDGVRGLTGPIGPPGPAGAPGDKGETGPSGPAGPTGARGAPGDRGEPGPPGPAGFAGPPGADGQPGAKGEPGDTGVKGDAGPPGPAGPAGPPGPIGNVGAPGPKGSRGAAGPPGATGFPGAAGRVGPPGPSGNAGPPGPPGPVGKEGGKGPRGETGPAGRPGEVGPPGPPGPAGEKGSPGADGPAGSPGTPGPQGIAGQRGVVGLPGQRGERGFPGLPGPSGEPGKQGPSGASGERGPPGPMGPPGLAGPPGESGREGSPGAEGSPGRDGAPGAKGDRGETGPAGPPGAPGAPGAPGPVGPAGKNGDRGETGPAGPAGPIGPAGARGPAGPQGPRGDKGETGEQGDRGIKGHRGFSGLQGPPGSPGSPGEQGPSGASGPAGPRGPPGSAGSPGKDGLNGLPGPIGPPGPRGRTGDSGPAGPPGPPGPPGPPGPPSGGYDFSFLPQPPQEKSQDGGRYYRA
Chain of rat collagen (collagen type I) (P02466 86-1125 limits assumed, chain 2 of 2): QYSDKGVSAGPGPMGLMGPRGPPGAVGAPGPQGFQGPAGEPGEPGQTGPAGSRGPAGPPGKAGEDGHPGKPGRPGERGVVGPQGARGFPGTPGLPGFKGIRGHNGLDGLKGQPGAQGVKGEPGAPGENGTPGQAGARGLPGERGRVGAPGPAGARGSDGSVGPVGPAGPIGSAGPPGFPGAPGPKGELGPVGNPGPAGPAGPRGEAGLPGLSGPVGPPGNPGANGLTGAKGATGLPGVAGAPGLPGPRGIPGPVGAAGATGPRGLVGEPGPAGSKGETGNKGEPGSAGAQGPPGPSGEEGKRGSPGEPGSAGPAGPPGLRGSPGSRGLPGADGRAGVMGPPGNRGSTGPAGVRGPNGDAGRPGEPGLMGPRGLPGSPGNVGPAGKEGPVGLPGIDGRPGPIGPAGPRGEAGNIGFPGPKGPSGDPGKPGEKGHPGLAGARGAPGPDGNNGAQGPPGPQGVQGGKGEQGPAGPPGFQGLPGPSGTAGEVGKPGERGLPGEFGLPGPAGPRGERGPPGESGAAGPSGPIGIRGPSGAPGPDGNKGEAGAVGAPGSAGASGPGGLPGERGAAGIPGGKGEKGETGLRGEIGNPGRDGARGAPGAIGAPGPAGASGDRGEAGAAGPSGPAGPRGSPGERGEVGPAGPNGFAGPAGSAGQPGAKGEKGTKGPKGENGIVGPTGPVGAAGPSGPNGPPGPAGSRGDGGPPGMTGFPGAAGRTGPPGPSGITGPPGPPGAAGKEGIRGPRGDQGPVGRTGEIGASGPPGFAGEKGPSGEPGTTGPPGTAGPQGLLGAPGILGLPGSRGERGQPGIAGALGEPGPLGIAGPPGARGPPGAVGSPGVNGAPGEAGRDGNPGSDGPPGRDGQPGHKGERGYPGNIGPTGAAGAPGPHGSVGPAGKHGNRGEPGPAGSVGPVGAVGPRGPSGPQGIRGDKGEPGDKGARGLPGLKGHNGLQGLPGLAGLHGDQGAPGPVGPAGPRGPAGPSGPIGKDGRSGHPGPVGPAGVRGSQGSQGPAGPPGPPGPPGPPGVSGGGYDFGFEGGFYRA

| Binder | Kd [1] [µM] | collagen fibril thickness against the collagen control, 5:1 ratio [2] [% less] | fibril growth, absorption, higher ratios of tandem CBD [2] | fibril growth, absorption, lower ratios of CBD [2] |
| --- | --- | --- | --- | --- |
| B1 | ~100 | – | – | – |
| B2 | – | 2 | 0.005 | 0.0217 |
